Assay results reported in US20200184403A1 (DOW AGROSCIENCES, published 2020).

Molecular target: the molecule itself
Assay: SDS-PAGE of undigested full-length DIG-177 (self-association)
Description: SDS-PAGE was run following the protocol NuPAGE Bis-Tris gels from Invitrogen Life technologies (Protocol Pub. No. MAN0007894 Rev. A.0, Ref.2). Briefly, samples were mixed with denaturing sample buffer (Invitrogen) plus 5 mM DTT (for reducing PAGE) or minus DTT (for non reducing PAGE) and heated at 95° C. for 5 minutes. The samples were loaded onto Invitrogen Bis/Tris gel. The gel was run with MOPS or MES running buffer under 200 V for ˜43 minutes. The gel was stained with Coomassie blue staining solution (Bio-Rad) for 30 minutes and de-stained with de-staining solution (7% Acetic acid and 5% Methanol in water) until the background cleared.

B1: DIG-177 (full length wild type Cry6Aa) (other)
chain: MIIDSKTTLPRHSLIHTIKLNSNKKYGPGDMTNGNQFIISKQEWATIGAYIQTGLGLPVNEQQLRTHVNLSQDISIPSDFSQLYDVYCSDKTSAEWWNKNLYPLIIKSANDIASYGFKVAGDPSIKKDGYFKKLQDELDNIVDNNSDDDAIAKAIKDFKARCGILIKEAKQYEEAAKNIVTSLDQFLHGDQKKLEGVINIQKRLKEVQTALNQAHGESSPAHKELLEKVKNLKTTLERTIKAEQDLEKKVEYSFLLGPLLGFVVYEILENTAVQHIKNQIDEIKKQLDSAQHDLDRDVKIIGMLNSINTDIDNLYSQGQEAIKVFQKLQGIWATIGAQIENLRTTSLQEVQDSDDADEIQIELEDASDAWLVVAQEARDFTLNAYSTNSRQNLPINVISDSCNCSTTNMTSNQYSNPTTNMTSNQYMISHEYTSLPNNFMLSRNSNLEYKCPENNFMIYWYNNSDWYNNSDWYNN
notes: Recombinant, produced in Pseudomonas fluorescens (standard) or in maize cells (Western blots)
B1: binds.
